{
  "source": "paper doi:10.1101/2025.09.05.674523",
  "about": "(bioRxiv, 2025)",
  "molecules": {"B1": {"name": "full-length recombinant mouse EPPIN (mEPPIN; L24-T134) (natural protein)", "chain": "LADLLFPRRCPRFREECEHQERDLCTRDRDCPKKEKCCVFNCGKKCLNPQQDICSLPKDSGYCMAYFRRWWFNKENSTCQVFIYGGCQGNNNNFQSQSICQNACEKKSSLT"}, "B2": {"name": "recombinant human SEMG1 (hSEMG1, G26-R281) (domain or fragment, UniProt P04279 26-281, looked up)", "chain": "GGSKGRLPSEFSQFPHGQKGQHYSGQKGKQQTESKGSFSIQYTYHVDANDHDQSRKSQQYDLNALHKTTKSQRHLGGSQQLLHNKQEGRDHDKSKGHFHRVVIHHKGGKAHRGTQNPSQDQGNSPSGKGISSQYSNTEERLWVHGLSKEQTSVSGAQKGRKQGGSQSSYVLQTEELVANKQQRETKNSHQNKGHYQNVVEVREEHSSKVQTSLCPAHQDKLQHGSKDIFSTQDELLVYNKNQHQTKNLNQDQQHGR"}},
  "test_in_all_cases": "AlphaScreen or HTRF",
  "key": {"mEPPIN^L24-K68 (mouse)": {"target": "mEPPIN^L24-K68 (mouse) (UniProt Q9DA01)"}, "[1]": {"target": "full-length recombinant mouse EPPIN (mEPPIN; L24-T134) (mouse) (UniProt Q9DA01)"}, "[2]": {"target": "full-length recombinant mouse SEMG1 (mSEMG1; Q32-G375) (mouse)"}, "[3]": {"target": "T1, full-length recombinant mouse EPPIN (mEPPIN; L24-T134) (mouse, UniProt Q9DA01 24-134)", "T1 sequence (looked up)": "B1 chain"}},
  "data": [
    {"molecule": "full-length recombinant mouse SEMG1 (mSEMG1; Q32-G375) (natural protein)", "values": [
      {"measurement": "reduction in the specific signal compared to full-length EPPIN", "setting": "mEPPIN^L24-K68 (mouse)", "result": 75, "unit": "%"},
      {"measurement": "EC50", "setting": "[1]", "result": 23.6, "unit": "nM"}
    ]},
    {"molecule": "B1", "values": [
      {"measurement": "EC50", "setting": "[2]", "result": 1, "unit": "nM"}
    ]},
    {"molecule": "B2", "values": [
      {"measurement": "EC50", "setting": "[3]", "result": 8.3, "unit": "nM"}
    ]}
  ]
}
